Legend:
[1] = molecular target: the molecule itself; experiment: SDS-PAGE with and without 2-mercaptoethanol; band at about 25 kDa without reducing agent
Description: The HPLC-purified recombinant human CD83ext protein (cloning and expression as described in example 1, purification as described in example 2 was analysed with the Laemmli SDS-PAGE system. To identify possible oligomeric forms of CD83 2-mercaptoethanol (ME) has been omitted from the sample buffer (2% SDS, 5% 2-Mercaptoethanol (ME), 10% Glycerol, 0.2 mM EDTA, 0.005% bromphenolblue, 62.5 mM Tris pH6.8). In the absence of this reducing agent, the intra- and interchain disulfide bonds of CD83 remain intact. The reduced and non-reduced protein samples were both incubated for 5 min at 95° C. and compared with each other by SDS-PAGE (see FIG. 7). During electrophoresis, the mobilities of oligomeric SDS-proteins is lower than those of their fully denatured SDS-polypeptide components. Without ME an upper band appears at the estimated size of a CD83-dimer (about 25 kDa), while the monomeric CD83 band (about 14 kDa) is fainting. Westernblot analysis using the anti-CD83 antibody CD83-1G11 (Lechmann et al., Protein Expression and Purification 24:445-452 (Mar. 2, 2002)) confirmed the specificity of the protein bands. Thus, hCD83ext is a disulfide-linked homodimeric protein.

[2] = molecular target: the molecule itself; experiment: SDS-PAGE with and without 2-mercaptoethanol
Description: The purified hCD83ext_mut129_Cys to Ser was compared to purified hCD83ext by SDS-PAGE (see FIG. 9). […] Under non-reducing conditions no CD83-dimer could be detected with the mutant CD83 protein. So the 5th carboxyterminal cysteine of the extracellular CD83 domain is necessary for the creation of homodimers. Westernblot analysis confirmed specificity of the bands (data not shown).

Protein	binding result [1]	binding result [2]
recombinant human CD83ext protein (soluble extracellular domain of human CD83) (receptor, Expressed in E. coli as a GST fusion and cleaved with thrombin; also called hCD83ext; soluble CD83) GSPGTPEVKVACSEDVDLPCTAPWDPQVPYTVSWVKLLEGGEERMETPQEDHLRGQHYHQKGQNGSFDAPNERPYSLKIRNTTSCNSGTYRCTLQDPDGQRNLSGKVILRVTGCPAQRKEETFKKYRAEI	binds	
hCD83ext_mut129_Cys to Ser (receptor, Expressed in E. coli as a GST fusion and cleaved with thrombin; Monomeric; also called hCD83ext mut129 Cys to Ser mutant) GSPGTPEVKVACSEDVDLPCTAPWDPQVPYTVSWVKLLEGGEERMETPQEDHLRGQHYHQKGQNGSFDAPNERPYSLKIRNTTSCNSGTYRCTLQDPDGQRNLSGKVILRVTGSPAQRKEETFKKYRAEI		no binding

Reference: patent publication US20120015890A1 (ARGOS THERAPEUTICS, published 2012)
